Source: PMC4642536, “Structural analysis of fungus-derived FAD glucose dehydrogenase” (Scientific Reports, 2015)

Target: the molecule itself
Test: SEC; size exclusion chromatography of GOx as comparison to AfGDH; elution volume corresponding to the dimer; conditions not shown (Supplementary Figure S4)

B1: glucose oxidase (enzyme, UniProt P13006 17-605, looked up)
chain: LPHYIRSNGIEASLLTDPKDVSGRTVDYIIAGGGLTGLTTAARLTENPNISVLVIESGSYESDRGPIIEDLNAYGDIFGSSVDHAYETVELATNNQTALIRSGNGLGGSTLVNGGTWTRPHKAQVDSWETVFGNEGWNWDNVAAYSLQAERARAPNAKQIAAGHYFNASCHGVNGTVHAGPRDTGDDYSPIVKALMSAVEDRGVPTKKDFGCGDPHGVSMFPNTLHEDQVRSDAAREWLLPNYQRPNLQVLTGQYVGKVLLSQNGTTPRAVGVEFGTHKGNTHNVYAKHEVLLAAGSAVSPTILEYSGIGMKSILEPLGIDTVVDLPVGLNLQDQTTATVRSRITSAGAGQGQAAWFATFNETFGDYSEKAHELLNTKLEQWAEEAVARGGFHNTTALLIQYENYRDWIVNHNVAYSELFLDTAGVASFDVWDLLPFTRGYVHILDKDPYLHHFAYDPQYFLNELDLLGQAAATQLARNISNSGAMQTYFAGETIPGDNLAYDADLSAWTEYIPYHFRPNYHGVGTCSMMPKEMGGVVDNAARVYGVQGLRVIDGSIPPTQMSSHVMTVFYAMALKISDAILEDYASMQ
notes: glucose oxidase (GOx) used as the comparison in size exclusion chromatography; probably the glycosylated enzyme; also called GOx
For B1, the “stoichiometry N” value was 2.
